Values quoted from earlier work, collected in PMC2683937.

Columns and labels:
TGF-β1 (Homo sapiens) = TGF-β1 (Homo sapiens) (UniProt P01137)
BMP4 (Homo sapiens) = BMP4 (Homo sapiens) (UniProt P12644)
Chain of UniProt P12644 (P12644 293-408): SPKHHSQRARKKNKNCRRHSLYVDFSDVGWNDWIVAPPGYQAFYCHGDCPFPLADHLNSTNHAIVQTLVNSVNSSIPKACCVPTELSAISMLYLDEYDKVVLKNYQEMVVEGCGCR

Chain of UniProt P01137 (P01137 279-390): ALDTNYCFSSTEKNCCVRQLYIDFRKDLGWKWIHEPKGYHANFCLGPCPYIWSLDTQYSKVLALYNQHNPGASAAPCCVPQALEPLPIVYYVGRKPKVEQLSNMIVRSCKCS

- Kd (TGF-β1 (Homo sapiens)): 30 nM
- Kd (BMP4 (Homo sapiens)): 5 nM
Substance: CCN2 (from UniProt P29279)
